These results are taken from patent US12068729.

Experiment [1] addresses human Factor XII (FXII), Enzyme Research Laboratories Cat #1212 (human). Put plainly: SPR Biacore, mAb captured by anti-hFc, 25 C.
In experiment [2] the target is human activated Factor XII (FXIIa), Enzyme Research Laboratories Cat #1212a (human). Put plainly: SPR Biacore, mAb captured by anti-hFc, 25 C. In general terms: SPR reads the build-up and loss of mass on a sensor chip optically.
The target in experiment [3] is human Factor XII (FXII), Enzyme Research Laboratories Cat #1212 (human). Put plainly: SPR Biacore, mAb captured by anti-hFc, 37 C.
Experiment [4] has as its target human activated Factor XII (FXIIa), Enzyme Research Laboratories Cat #1212a (human). Put plainly: SPR Biacore, mAb captured by anti-hFc, 37 C.

For the substance “Comparator 1, a monoclonal antibody against human FXII/FXIIa having VH/VL sequences of antibody 3F7 according to U.S. Pat. No. 9,518,127 (CSL Behring GmbH)”, the 100 nM Ag Bound (RU) in experiment [1] is 9.5 RU. In experiment [2], the 100 nM Ag Bound (RU) came to 297 RU, the Kd was 2.54 nM, the koff was found to be 0.000996 s⁻¹ and the kon stood at 392000 M⁻¹ s⁻¹. In addition, the t½ in experiment [2] was 11.6 min. The 100 nM Ag Bound (RU) in experiment [3] was 9.9 RU. In addition, in experiment [4], the 100 nM Ag Bound (RU) is 312 RU, the Kd was 8.25 nM, the koff was 0.00515 s⁻¹ and the kon is 624000 M⁻¹ s⁻¹. Besides, the t½ in experiment [4] stood at 2 min.

Regarding “Comparator 2, a human monoclonal antibody against human FXII having VH/VL sequences of antibody 15H8 according to U.S. Pat. No. 9,574,013 (Vanderbilt Univ./Aronora)”, in experiment [1], the 100 nM Ag Bound (RU) was found to be 86.1 RU, the Kd is 37.3 nM, the koff amounted to 0.00247 s⁻¹ and the kon was 66100 M⁻¹ s⁻¹. In experiment [1], this substance registered a t½ of 4.7 min. In experiment [2], this substance came in with a 100 nM Ag Bound (RU) of 197 RU, a Kd of 2.93 nM, a koff of 0.00451 s⁻¹ and a kon of 1.54e+06 M⁻¹ s⁻¹. Further, in experiment [2], the t½ was 2.6 min. Moreover, in experiment [3], the 100 nM Ag Bound (RU) came out at 83.8 RU, the Kd was determined as 45.3 nM, the koff was found to be 0.0542 s⁻¹ and the on-rate (kon) was 1.2e+06 M⁻¹ s⁻¹. Moreover, in experiment [3], the t½ is 0 h. Moreover, in experiment [4], the 100 nM Ag Bound (RU) turned out to be 187 RU, the dissociation constant (Kd) amounted to 2.76 nM, the off-rate (koff) came out at 0.02 s⁻¹ and the kon was 7.25e+06 M⁻¹ s⁻¹. The t½ in experiment [4] is 1 min.

As to Isotype control (antibody), the 100 nM Ag Bound (RU) was 10 RU in experiment [1], 0.1 RU in experiment [2], 10.3 RU in experiment [3] and -2.7 RU in experiment [4].

The Kd is a measure of binding affinity in units of concentration. The low end stands for tighter binding, the high end for weaker binding. What is called koff is the rate constant with which the complex falls apart. Lower therefore signals slow dissociation. The term kon denotes a measure of how fast the partners come together. Usually t½ stands for the time needed for the level to fall by half in the phase considered. Read a low t½ as fast loss.
